T1: FcγRIIb extracellular domain with C-terminal His tag (human, UniProt P31994 43-217)
T1 construct: extracellular domain; Soluble receptor expressed in FreeStyle293 cells, used as analyte in Biacore; also called FcgRIIb; 2b
T1 sequence (looked up): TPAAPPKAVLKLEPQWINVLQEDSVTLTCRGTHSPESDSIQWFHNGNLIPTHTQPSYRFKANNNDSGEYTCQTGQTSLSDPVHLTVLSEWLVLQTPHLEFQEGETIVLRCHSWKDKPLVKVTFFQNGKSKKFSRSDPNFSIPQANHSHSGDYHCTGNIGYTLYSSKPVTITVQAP

B1: GpH7-A5/GpH7-B3 variant S298_02A/GpL16-k0 (antibody, human IgG1, kappa)
heavy 1: not shown
heavy 2: not shown
light: DIVMTQSPLSLPVTPGEPASISCQASESLVHSNRNTYLHWYLQKPGQSPQLLIYKVSNRFSGVPDRFSGSGSGTDFTLKISRVEAEDVGVYYCSQNTHVPPTFGQGTKVEIERTVAAPSVFIFPPSDEQLKSGTASVVCLLNNFYPREAKVQWKVDNALQSGNSQESVTEQDSKDSTYSLSSTLTLSKADYEKHKVYACEVTHQGLSSPVTKSFNRGEC
notes: Heterodimerized anti-glypican-3 IgG1; mutation in the GpH7-B3 chain only; also called He Ab
B2: GpH7-A5/GpH7-B3 variant E333_13S/GpL16-k0 (antibody, human IgG1, kappa)
heavy 1: not shown
heavy 2: not shown
light: B1 light
notes: as for B1
B3: GpH7-A5/GpH7-B3 variant A330_06M/GpL16-k0 (antibody, human IgG1, kappa)
heavy 1: not shown
heavy 2: not shown
light: B1 light
notes: as for B1
B4: GpH7-A5/GpH7-B3 variant K334_08L/GpL16-k0 (antibody, human IgG1, kappa)
heavy 1: not shown
heavy 2: not shown
light: B1 light
notes: as for B1
B5: GpH7-A5/GpH7-B3 variant K334_05P/GpL16-k0 (antibody, human IgG1, kappa)
heavy 1: not shown
heavy 2: not shown
light: B1 light
notes: as for B1
B6: GpH7-A5/GpH7-B3 variant I332_10E/GpL16-k0 (antibody, human IgG1, kappa)
heavy 1: not shown
heavy 2: not shown
light: B1 light
notes: as for B1
B7: GpH7-A5/GpH7-B3 variant E333_01G/GpL16-k0 (antibody, human IgG1, kappa)
heavy 1: not shown
heavy 2: not shown
light: B1 light
notes: as for B1
B8: GpH7-A5/GpH7-B3 variant P329_02A/GpL16-k0 (antibody, human IgG1, kappa)
heavy 1: not shown
heavy 2: not shown
light: B1 light
notes: as for B1
B9: GpH7-A5/GpH7-B3 variant A330_10E/GpL16-k0 (antibody, human IgG1, kappa)
heavy 1: not shown
heavy 2: not shown
light: B1 light
notes: as for B1
B10: GpH7-A5/GpH7-B3 variant E333_02A/GpL16-k0 (antibody, human IgG1, kappa)
heavy 1: not shown
heavy 2: not shown
light: B1 light
notes: as for B1
B11: GpH7-A5/GpH7-B3 variant K334_09D/GpL16-k0 (antibody, human IgG1, kappa)
heavy 1: not shown
heavy 2: not shown
light: B1 light
notes: as for B1
B12: GpH7-A5/GpH7-B3 variant A330_03V/GpL16-k0 (antibody, human IgG1, kappa)
heavy 1: not shown
heavy 2: not shown
light: B1 light
notes: as for B1
B13: GpH7-A5/GpH7-B3 variant K334_07I/GpL16-k0 (antibody, human IgG1, kappa)
heavy 1: not shown
heavy 2: not shown
light: B1 light
notes: as for B1
B14: GpH7-A5/GpH7-B3 variant P329_12R/GpL16-k0 (antibody, human IgG1, kappa)
heavy 1: not shown
heavy 2: not shown
light: B1 light
notes: as for B1
B15: GpH7-A5/GpH7-B3 variant K334_01G/GpL16-k0 (antibody, human IgG1, kappa)
heavy 1: not shown
heavy 2: not shown
light: B1 light
notes: as for B1
B16: GpH7-A5/GpH7-B3 variant A330_04F/GpL16-k0 (antibody, human IgG1, kappa)
heavy 1: not shown
heavy 2: not shown
light: B1 light
notes: as for B1
B17: GpH7-A5/GpH7-B3 variant A330_08L/GpL16-k0 (antibody, human IgG1, kappa)
heavy 1: not shown
heavy 2: not shown
light: B1 light
notes: as for B1
B18: GpH7-A5/GpH7-B3 variant K334_06M/GpL16-k0 (antibody, human IgG1, kappa)
heavy 1: not shown
heavy 2: not shown
light: B1 light
notes: as for B1
B19: GpH7-A5/GpH7-B3 variant A327_11K/GpL16-k0 (antibody, human IgG1, kappa)
heavy 1: not shown
heavy 2: not shown
light: B1 light
notes: as for B1
B20: GpH7-A5/GpH7-B3 variant E333_16H/GpL16-k0 (antibody, human IgG1, kappa)
heavy 1: not shown
heavy 2: not shown
light: B1 light
notes: as for B1
B21: GpH7-A5/GpH7-B3 variant K334_04F/GpL16-k0 (antibody, human IgG1, kappa)
heavy 1: not shown
heavy 2: not shown
light: B1 light
notes: as for B1
B22: GpH7-A5/GpH7-B3 variant I332_12R/GpL16-k0 (antibody, human IgG1, kappa)
heavy 1: not shown
heavy 2: not shown
light: B1 light
notes: as for B1
B23: GpH7-A5/GpH7-B3 variant A330_15Y/GpL16-k0 (antibody, human IgG1, kappa)
heavy 1: not shown
heavy 2: not shown
light: B1 light
notes: as for B1
B24: GpH7-A5/GpH7-B3 variant A330_20W/GpL16-k0 (antibody, human IgG1, kappa)
heavy 1: not shown
heavy 2: not shown
light: B1 light
notes: as for B1
B25: GpH7-A5/GpH7-B3 variant I332_09D/GpL16-k0 (antibody, human IgG1, kappa)
heavy 1: not shown
heavy 2: not shown
light: B1 light
notes: as for B1
B26: GpH7-A5/GpH7-B3 variant I332_01G/GpL16-k0 (antibody, human IgG1, kappa)
heavy 1: not shown
heavy 2: not shown
light: B1 light
notes: as for B1
B27: GpH7-A5/GpH7-B3 variant A330_07I/GpL16-k0 (antibody, human IgG1, kappa)
heavy 1: not shown
heavy 2: not shown
light: B1 light
notes: as for B1
B28: GpH7-A5/GpH7-B3 variant P329_11K/GpL16-k0 (antibody, human IgG1, kappa)
heavy 1: not shown
heavy 2: not shown
light: B1 light
notes: as for B1
B29: GpH7-A5/GpH7-B3 variant K334_02A/GpL16-k0 (antibody, human IgG1, kappa)
heavy 1: not shown
heavy 2: not shown
light: B1 light
notes: as for B1

Molecular target: T1, FcγRIIb extracellular domain with …
Assay: SPR (Biacore), antibody captured on antigen peptide chip, FcγR as analyte; GpH7-A5/GpH7-B3/GpL16-k0 = 100
Experimental: (§1) The heterodimerized antibodies He Abs in which one of the H chains was introduced with an alteration were assayed for their binding activities to each activating FcγR and inhibitory FcγR according to the method described in Example 4. […] The activating FcγRs in FIGS. 26, 27, 28, and 29 are FcγRIa, FcγRIIa (R), FcγRIIa (H), and FcγRIIIa, respectively.
(§2) Analysis of interaction between objective antibody and the FcγR was carried out using Biacore T100 (GE Healthcare). HBS-EP+ (GE Healthcare) was used as the running buffer, and the measurement temperature was set to 25° C. Chips produced by immobilizing the antigen peptide by the amine coupling method to a Series S Sencor Chip CM5 (GE Healthcare), or alternatively, chips produced by allowing preliminarily biotinylated antigen peptides to interact with and immobilize onto a Series S Sensor Chip SA (certified) (GE Healthcare) were used. Antibodies of interest were captured onto an antigen peptide-immobilized chip, and allowed to interact to each FcγR diluted with running buffer. To regenerate and repeatedly use the chip, the antibodies captured on the chip were washed off by reacting 10 mM glycine-HCl, pH 1.5.

He/Con_2b (relative binding activity) | Binder
73.4 % of control | B1
81.8 % of control | B2
80.5 % of control | B3
106 % of control | B4
105 % of control | B5
142 % of control | B6
81.4 % of control | B7
40.5 % of control | B8
70.1 % of control | B9
83.8 % of control | B10
94.8 % of control | B11
52.4 % of control | B12
119 % of control | B13
17.6 % of control | B14
92.5 % of control | B15
92.8 % of control | B16
70.5 % of control | B17
109 % of control | B18
12.5 % of control | B19
83.3 % of control | B20
111 % of control | B21
48.9 % of control | B22
95 % of control | B23
76.1 % of control | B24
147 % of control | B25
87.1 % of control | B26
67.1 % of control | B27
16.9 % of control | B28
108 % of control | B29

Molecular target: T2, FcγRIIIa extracellular domain with C-terminal His tag (human, UniProt P08637 17-208)
T2 construct: extracellular domain; also called FcgRIIIa; 3a
Assay: as above
Experimental: as §1, §2

T2 sequence (P08637 17-208): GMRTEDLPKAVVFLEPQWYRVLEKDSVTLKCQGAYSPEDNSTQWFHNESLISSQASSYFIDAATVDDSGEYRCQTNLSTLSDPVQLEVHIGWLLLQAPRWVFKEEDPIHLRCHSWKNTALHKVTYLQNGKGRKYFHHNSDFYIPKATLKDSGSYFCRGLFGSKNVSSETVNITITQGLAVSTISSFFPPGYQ

He/Con_3a (relative binding activity) | Binder
160 % of control | B1
103 % of control | B2
142 % of control | B3
143 % of control | B4
134 % of control | B5
233 % of control | B6
98.2 % of control | B7
56.4 % of control | B8
84.6 % of control | B9
105 % of control | B10
160 % of control | B11
101 % of control | B12
151 % of control | B13
26.7 % of control | B14
121 % of control | B15
147 % of control | B16
124 % of control | B17
144 % of control | B18
31.7 % of control | B19
103 % of control | B20
148 % of control | B21
75.9 % of control | B22
125 % of control | B23
104 % of control | B24
207 % of control | B25
111 % of control | B26
103 % of control | B27
29.6 % of control | B28
147 % of control | B29

Molecular target: T2, FcγRIIIa extracellular domain with …
Assay: SPR (Biacore); He/Con_3a divided by He/Con_2b (FcγRIIIa against FcγRIIb)
Experimental: as §1, §2

He_3a/2b (IIIa/IIb) | Binder
2.18 ratio | B1
1.26 ratio | B2
1.76 ratio | B3
1.35 ratio | B4
1.27 ratio | B5
1.63 ratio | B6
1.21 ratio | B7
1.39 ratio | B8
1.21 ratio | B9
1.26 ratio | B10
1.69 ratio | B11
1.93 ratio | B12
1.27 ratio | B13
1.52 ratio | B14
1.31 ratio | B15
1.59 ratio | B16
1.77 ratio | B17
1.33 ratio | B18
2.53 ratio | B19
1.24 ratio | B20
1.33 ratio | B21
1.55 ratio | B22
1.32 ratio | B23
1.37 ratio | B24
1.41 ratio | B25
1.27 ratio | B26
1.53 ratio | B27
1.76 ratio | B28
1.37 ratio | B29

Source: US20150344570A1 (published 2015)
